Reference: PMC6737914, “Dissection of GTPase-activating proteins reveals functional asymmetry in the COPI coat of budding yeast” (Journal of Cell Science, 2019)

Molecular target: T1, TAP-purified coatomer (TAP-tagged β′-COP) (S. cerevisiae, UniProt P53622 1-1201; P41811 1-889; P40509 1-296; P41810 1-973; P32074 1-935; P43621 …)
T1 construct: α-COP subunit of coatomer, S. cerevisiae; β′-COP subunit of coatomer, S. cerevisiae, TAP-tagged; ε-COP subunit of coatomer, S. cerevisiae; β-COP subunit of coatomer, S. cerevisiae; γ-COP subunit of coatomer, S. cerevisiae; δ-COP subunit of coatomer, S. cerevisiae; ζ-COP subunit of coatomer, S. cerevisiae; The complex was released by TEV cleavage after the incubation with Glo3; also called …
Experiment: pull-down; TAP-immobilised COPI incubated with a molar excess of MBP-Glo3 (ΔAmpH) for 20 min at 4°C, washed, eluted by TEV cleavage; Coomassie staining and western blots
Details: both partners purified

B1: MBP-Glo3 (ΔAmpH), Glo3 (1–459) lacking its distal amphipathic helix (domain or fragment)
chain: not shown
notes: Glo3, S. cerevisiae, residues 1-459, without the distal amphipathic helix (printed as 459–493); After TEV elution of the complex the eluates were incubated with amylose resin to deplete MBP; also called Glo3 lacking a C-terminal amphipathic helix; source: E. coli Rosetta (DE3) or BL21 (pREP4), purified (Ni-IDA resin), dialysed
- binding result: binds
